Results on 17 sequences are retold here after the supplement of paper PMC12764529.

Data set [1] in a line: folding stability dG unfold from chymotrypsin proteolysis; higher = more stable. Summed up:
(§1)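 Unfolding free energy was derived, per protease or combined, against a sequence-predicted unfolded-state K50 and a shared folded-state K50, starting from K50 inferred by Bayesian fitting of sequencing counts. Digestion with trypsin and chymotrypsin was carried out on designed mini-proteins under 80 residues without cysteine in a PA-tagged cDNA display construct. Only designs with AlphaFold2 dimer inter-PAE above 15 were kept.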

The nature of data set [2]: folding stability dG unfold (combined trypsin and chymotrypsin); higher = more stable. A digest of the protocol:
as §1

Data set [3] is described as follows: folding stability dG unfold from trypsin proteolysis; higher = more stable. Summed up: as §1

± gives the half width of the 95% confidence interval.

Turning to “SAGMMLIEVEKNGEPVEVAEVKDDEITITLPKEKVRIRIVNADTGEEVEAEATVEDGTITIKLPPGVKLSAG [r5_469_TrROS_Hall]”, the figures for the “folding stability dG unfold” value in data set [1], in data set [2] and in data set [3] were -0.794 ± 0.45 kcal/mol, 0.232 ± 0.19 kcal/mol and 0.669 ± 0.077 kcal/mol, respectively.

For “SAGMMTIEIELKNGKKIKIEVEKKNGKYIIKITVYDKNGKKVKEVKIEVPKKNMSLEEIIKEALKKLLKSAG [r5_630_TrROS_Hall]”, the “folding stability dG unfold” value in data set [1] stood at 3.71 ± 0.28 kcal/mol; in data set [2] it was 3.73 ± 0.47 kcal/mol; in data set [3], 2.83 ± 0.2 kcal/mol.

As for “SAGMMTVEELKEKLKEAAEKAGVKVKEIKITGPDGKEITVEVDLSEEQLKKLAEELGLEIDEVEVREPSAGG [r19_50_TrROS_Hall]”, the “folding stability dG unfold” value came out at 1.75 ± 0.092 kcal/mol in data set [1], 1.67 ± 0.2 kcal/mol in data set [2] and 1.3 ± 0.099 kcal/mol in data set [3].

On to “SAGMMVKVEIEFPLTLTTTEKVGTGPNGIPVFETREEIVVITFRATVPENPEEVAAAKEEAKAVAEALSSAG [r14_223_JUSTAS]”, for which the “folding stability dG unfold” value was 2.08 ± 0.11 kcal/mol in data set [1], 1.89 ± 0.2 kcal/mol in data set [2] and 1.8 ± 0.042 kcal/mol in data set [3].

As for “SAGMMYKITIKTKNGEKIEIEIPAEELENLTEEQLKELAKELAKKLEEEGIEVEKVEVKIEPVKPEELSAGG [r19_334_TrROS_Hall]”, the “folding stability dG unfold” value in data set [1] came out at 2.93 ± 0.058 kcal/mol; in data set [2], 3.04 ± 0.13 kcal/mol; in data set [3], 3.3 ± 0.23 kcal/mol.

For the sequence “SAGMNLSPEEIAERIREEAKKKYPNSEVEVRIVSQPPTTIVLEVKITIYFPEEGGSIIEEPRVITIDRLSAG [r14_187_JUSTAS]”, the “folding stability dG unfold” value came out at 2.17 ± 0.13 kcal/mol in data set [1], 2.15 ± 0.13 kcal/mol in data set [2] and 2.05 ± 0.076 kcal/mol in data set [3].

Regarding “SAGMPAGDFEPVKVEYTIKIPILNEGGGAAAPMPIKVKVEVYRMPNGNLFIKFEIEIPGGNKIEFWFPISAG [r5_580_TrROS]”, the “folding stability dG unfold” value in data set [1] was 4.32 ± 0.13 kcal/mol; in data set [2] it was 3.99 ± 0.26 kcal/mol; in data set [3] it was 2.67 ± 0.28 kcal/mol.

For the sequence “SAGMPETITIKIRNPETGKLYEIEIEKVDGEVKVTIRDVETGKERREITMTPEEVRELLKELGFEVEEVSAG [r5_291_TrROS_Hall]”, the figures for the “folding stability dG unfold” value in data set [1], in data set [2] and in data set [3] were 3.1 ± 0.056 kcal/mol, 2.63 ± 0.059 kcal/mol and 1.42 ± 0.049 kcal/mol, respectively.

“SAGMPGKIRVEVEAEISEDNVIKLKIKIYGPDGELIDEIEAEIYLPVPPLSPSEGGGLIEAGNPELAEGSAG [r5_944_TrMRF]”: the “folding stability dG unfold” value stood at 3.38 ± 0.092 kcal/mol in data set [1], 3.13 ± 0.13 kcal/mol in data set [2] and 2.54 ± 0.2 kcal/mol in data set [3].

With “SAGMPLRTVKVLVTINDKTEEKTLSEEELKALIESGELELLGKEPEENIVYVYKKVPPPVGSKTKKSLLSAG [r5_868_JUSTAS]”, the “folding stability dG unfold” value in data set [1] stood at 1.94 ± 0.17 kcal/mol; in data set [2], 1.64 ± 0.27 kcal/mol; in data set [3], 0.71 ± 0.29 kcal/mol.

In the case of “SAGMPPPEEVFVVKVRFDGKELTLVVRVPPGMSAEEVAKKLAEELRKKFGPDIEVEVRRVSREELLEALSAG [r5_583_TrROS_Hall]”, the entries for the “folding stability dG unfold” value in data set [1], in data set [2] and in data set [3] were 2.95 ± 0.12 kcal/mol, 3.23 ± 0.18 kcal/mol and 3.66 ± 0.13 kcal/mol, respectively.

For the sequence “SAGMPSFTTTSAPTEQLPELLAELATRPPNVSYTFPLPDPSRSLSLSVSADRITLTDPATGTTTTLPASAGG [r19_154_JUSTAS]”, the “folding stability dG unfold” value in data set [1] is -1.12 ± 0.51 kcal/mol; in data set [2] it was -0.779 ± 0.2 kcal/mol; in data set [3] it was -0.653 ± 0.17 kcal/mol.

As to “SAGMPVTVTSTSDPENGSTTVPRTHPTGPVVTVTITKLPPGELRVTVDAGTTVTLYTLPPDALTTFTTPSAG [r5_14_JUSTAS]”, the “folding stability dG unfold” value was found to be 0.13 ± 0.18 kcal/mol in data set [1], 0.339 ± 0.11 kcal/mol in data set [2] and 0.51 ± 0.16 kcal/mol in data set [3].

“SAGMSADIPVDPVTGTLTITVTDAFNPDKSTTTTVPLSELEAELGRPLTLEEVAARVEAAGVATVTVGPSAG [r14_809_JUSTAS]”: the “folding stability dG unfold” value in data set [1] is -0.0285 ± 0.085 kcal/mol; in data set [2] it was 0.82 ± 0.056 kcal/mol; in data set [3], 1.46 ± 0.051 kcal/mol.

Turning to “SAGMSEEERKAAEEASKPPVKVETLTVTVLVEVDGKLYLVRATITRVVLPDGSIVTELKIEIIPLEDLSAGG [r19_11_TrROS_Hall]”, the “folding stability dG unfold” value was found to be 4.26 ± 0.33 kcal/mol in data set [1], 3.88 ± 0.3 kcal/mol in data set [2] and 3.05 ± 0.21 kcal/mol in data set [3].

As to “SAGMSLVPLEELARAWAEERGLPVLDVEVPESRSPATRHVTITLTLRDPATGALTTETRELVIPEEELGSAG [r5_421_JUSTAS]”, the “folding stability dG unfold” value was determined as 0.583 ± 0.096 kcal/mol in data set [1], 0.621 ± 0.1 kcal/mol in data set [2] and 0.585 ± 0.077 kcal/mol in data set [3].

With “SAGMTAEELAEELAKELEVEVTLENGEKRRVRVEVKVERLPDGTLLLTAKVENEETGETFEIKIEIKLESAG [r5_397_TrROS_Hall]”, the results for the “folding stability dG unfold” value in data set [1], in data set [2] and in data set [3] were 4.3 ± 0.37 kcal/mol, 3.67 ± 0.33 kcal/mol and 2.9 ± 0.13 kcal/mol, respectively.
